Data set [1] deals with Rv1019, putative TetR family transcriptional regulator of Mycobacterium tuberculosis H37Rv (Mycobacterium tuberculosis H37Rv). The data set is described as follows: native gel or EMSA. Background: Mobility shift assays separate free from complexed probe on a gel.
The target is the same in data set [2]. The data set is described as follows: cross-linking.
Data set [3] deals with T1, Rv1019 (TetR family regulator) (Mycobacterium tuberculosis H37Rv) (UniProt P96381).
T1 sequence: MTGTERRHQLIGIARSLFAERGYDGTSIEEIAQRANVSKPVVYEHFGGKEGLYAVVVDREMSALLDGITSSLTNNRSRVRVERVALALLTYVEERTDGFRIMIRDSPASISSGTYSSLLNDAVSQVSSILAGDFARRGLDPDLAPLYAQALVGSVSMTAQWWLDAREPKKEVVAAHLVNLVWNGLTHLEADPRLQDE
The data set is described as follows: EMSA.

The target of data set [4] is T2, Rv1019 (TetR family regulator) (Mycobacterium tuberculosis H37Rv, UniProt P96381 1-197).
T2 sequence: T1 sequence
In words: EMSA.

The target of data set [5] is T2, Rv1019 (TetR family regulator). The data set is described as follows: EMSA. The source holds these as a separate data set.

Where two headings read alike, the source gives them in different places.

As for “Rv1019, putative TetR family transcriptional regulator of Mycobacterium tuberculosis H37Rv (natural protein)”, the stoichiometry N in data set [1] and in data set [2] was 2 throughout.

With “CCTGGCGCGCGTCACCCGCGTCGGGTTTTCCGGCGCCTTATCCGGCCCTTTATCCGGTCCGGCCACATCAACAAGGGTATCGGTTTGCGTGGGGCCGGTGGGTAGACGGCGACAGCGTTGACTGTGCTGACGGCGTTGACACCGTCTAAAGTCACATCGATGTGCAATCCGTCGTGGTGTAATCGGCAGCACCTCTGATTTTGGTTCAGATAGTTCAGGTTCGAGTCCTGGCGACGGAGCTTCAAGGAGGGTTGATGACGTTTCCTGGTGACACCGCGGTCCTGGTCCTAGCGGCCGGGC (double strand) [Fragment I, Rv1019 upstream -300 to -1]”, in data set [3], the binding result is on record as “binds”.

B1: M. smegmatis cognate site (MS Pal S1/S2) (dsDNA)
DNA 1: GGCTTGACGTGCGCGAACCGTCGAAAG
DNA 2: CTTTCGACGGTTCGCGCACGTCAAGCC
With B1, the binding result in data set [4] is on record as “binds”.

B2: Rv1019 18 bp inverted repeat (Palindrome Oligo S1/S2) (dsDNA)
DNA 1: TGACTTTAGACGGTGTCAACGCCGTCAGCACAGT
DNA 2: ACTGTGCTGACGGCGTTGACACCGTCTAAAGTCA
Take B2: the binding result in data set [5] was “binds”.

Usually stoichiometry N stands for a count of units in the complex or per binding partner.

For the origin of these results see article doi:10.1101/2020.02.10.941963.
